Starred links: 1 amine or outer side, 2 acyl side, 3 side chain; linkers in the order of their positions; H or OH if unused. Positions of bridges follow the written chain, without caps; N, C: chain ends. Non-standard residues stand in square brackets, D forms with d. Residues, ends and D or L forms follow the SMILES beside them. No end group written: not given here. BU = not defined here; CO = O=C([*:1])[*:2]
Experiments:
[1] = system: intestinal peptidases; experiment: metabolic stability BBMV assay (degradation by intestinal peptidases); type: in vitro ADME, rat; conditions: 37° C.
Method: The enzymatic reaction is performed similar to what described in Ovadia et al. (2009, Bioorg Med Chem 18, 580-589): 2 mM stock solutions of the tested compounds are diluted with serum or purified brush border membrane vesicles (BBMVs) solution to a final concentration of 0.5 mM. During incubation at 37° C. samples are taken for a period of 90 minutes. The enzymatic reaction is stopped by adding 1:1 v/v of ice cold acetonitrile and centrifuge (4000 g, 10 min) before analysis.
The BBMVs are prepared from combined duodenum, jejunum, and upper ileum (male Wistar rats) by a Ca++ precipitation method (Gante, J., Angew Chem Int Edit 1994, 33, (17), 1699-1720; Hess et al., ibid). Purification of the BBMVs is assayed using GGT, LAP and alkaline phosphatase as membrane enzyme markers.
M3D-1 was tested for metabolic stability to degradation by intestinal peptidases using the BBMV assay described above. The linear CCR2b(61-67) peptide was used as a control.

[2] = target: T1, CXCR4 (Homo sapiens, UniProt P61073); experiment: transwell migration assay, SDF-1 (CXCL12) induced migration; type: cell-based; conditions: cells migrating towards SDF-1; FIG. 7 crosshatch
T1 construct: endogenous in cells; host or cells: THP-1 (inferred; b171 says only 'cells')
T1 sequence (P61073 whole entry): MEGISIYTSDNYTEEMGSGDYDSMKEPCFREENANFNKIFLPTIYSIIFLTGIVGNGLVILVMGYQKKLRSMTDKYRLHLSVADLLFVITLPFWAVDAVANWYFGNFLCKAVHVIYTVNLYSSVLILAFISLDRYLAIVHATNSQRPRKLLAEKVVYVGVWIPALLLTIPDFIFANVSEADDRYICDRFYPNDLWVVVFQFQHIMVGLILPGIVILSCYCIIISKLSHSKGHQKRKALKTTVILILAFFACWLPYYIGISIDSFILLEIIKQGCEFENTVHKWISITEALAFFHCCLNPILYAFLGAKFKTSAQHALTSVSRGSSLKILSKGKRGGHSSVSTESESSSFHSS
Excerpt: (§1) The simple transwell migration assay (Mandelboim, O. Protocol Exchange (2006) doi:10.1038/nprot.2006.210) was used for evaluating the chemotactic migration in the presence of M3D-1. M3D-1 inhibited THP-1 cells migration towards MCP-1 (FIG. 7 stripes).
SDF-1 is known to have strong chemotactic effects following specific interaction with the receptor CXCR4 (Bleul et al., ibid).

[3] = system: cells; experiment: in vitro cytotoxicity assay; type: cell-based
[4] = system: THP-1 cells; experiment: spontaneous migration of THP-1 cells without additional chemokines; type: cell-based, human; conditions: FIG. 7 dots
Method: THP-1 cells spontaneous migration was evaluated without additional chemokines.

[5] = target: T2, CCR2 (Homo sapiens, UniProt P41597); experiment: transwell migration assay with MCP-1 as chemoattractant (THP-1 cells); type: cell-based
T2 construct: endogenous in cells; host or cells: THP-1
T2 sequence (P41597 1-360 isoform P41597-2): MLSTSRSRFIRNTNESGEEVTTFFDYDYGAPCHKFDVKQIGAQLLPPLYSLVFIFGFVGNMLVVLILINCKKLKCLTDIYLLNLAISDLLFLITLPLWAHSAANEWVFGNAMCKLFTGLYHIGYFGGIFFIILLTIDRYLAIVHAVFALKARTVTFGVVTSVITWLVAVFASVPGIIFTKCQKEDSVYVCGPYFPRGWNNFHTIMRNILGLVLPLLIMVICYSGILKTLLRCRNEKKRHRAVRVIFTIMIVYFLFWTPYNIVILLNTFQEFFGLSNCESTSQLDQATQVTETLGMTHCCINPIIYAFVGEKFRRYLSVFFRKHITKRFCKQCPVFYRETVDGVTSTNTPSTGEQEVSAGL
Method: A transwell migration assay (Bignold, L. P., J Immunol Methods 1987, 105, (2), 275-80) was performed using MCP-1 as a chemoattractant. The chemokine MCP-1 reacts only with the chemokine receptors CCR2 and CCR4. […] In this experiment, THP-1 cells were placed in the upper well of the trans-migration plate and specific migration was induced by placing MCP-1 in the lower well. The cells were allowed to migrate spontaneously or toward the chemokine, and counted after migration. To evaluate the effect of hCCR2b(61-67) on MCP-1-induced migration, the peptide (10 μM) was incubated with the cells and the number of migrating cells in the lower wells were determined.
as §1

| Compound | degradation by intestinal peptidases ([1]; FIG. 9, linear control peptide) | inhibition of SDF-1 induced migration [2] | time stable to degradation by intestinal peptidases ([1]; FIG. 9) | toxicity to cells [3] | number of cells that migrate in the absence of chemokine, with or without peptide [4] | inhibition of MCP-1-mediated migration ([5]; THP-1 cells migrating towards MCP-1, concentration not given, FIG. 2 / FIG. 7) | concentration range blocking specific CCR2 chemokine mediated cell migration ([5]; summary statement in the description) |
| --- | --- | --- | --- | --- | --- | --- | --- |
| CC[C@H](C)[C@H](NC(=O)[C@H](CC(C)C)NC(=O)[C@@H](NC(=O)[C@@H](NC(=O)[C@H](CC(C)C)NC(=O)[C@@H](N)CCSC)C(C)C)C(C)C)C(=O)N[C@@H](CC(C)C)C(=O)O [hCCR2b(61-67), MLVVLIL] (H-MLVVLIL-OH; N-terminus and C-terminus assumed) | completed degraded after about one hour |  |  |  |  |  |  |
| M-L-V-BU-L-I-BU-NH2 (MLV[BU]LI[BU]-NH2; bridge 4-7 via CO; reading uncertain; also: printed as M-L-V-BU-L-I-BU-NH2) [M3D-1] |  | no significant inhibition | at least 3 hours | not toxic to cells | no significant difference | inhibited | low micro-molar range |

Source: patent US20140336127A1, “Stabilized Peptide Helices For Inhibiting Dimerization Of Chemokine C Motif Receptor 2 (CCR2)” (Yissum Research Development Company of the Hebrew …, priority 2012, published 2014)
